B1: anti-PD-L1 THIOMAB (avelumab with light chain V205C) (antibody, human IgG1, lambda)
heavy: not shown
light: QSALTQPASVSGSPGQSITISCTGTSSDVGGYNYVSWYQQHPGKAPKLMIYDVSNRPSGVSNRFSGSKSGNTASLTISGLQAEDEADYYCSSYTSSSTRVFGTGTKVTVLGQPKANPTVTLFPPSSEELQANKATLVCLISDFYPGAVTVAWKADGSPVKAGVETTKPSKQSNNKYAASSYLSLTPEQWKSHRSYSCQVTHEGSTCEKTVAPTECS
modifications: engineered cysteine (V205C; Cys 226 of SEQ ID NO: 9) generally capped with a free cysteine in the intact THIOMAB as expressed
notes: also called αPD-L1 THIOMAB LC-V205C
B2: anti-PD-L1 antibody avelumab (antibody, human IgG1, lambda)
heavy: not shown
light: QSALTQPASVSGSPGQSITISCTGTSSDVGGYNYVSWYQQHPGKAPKLMIYDVSNRPSGVSNRFSGSKSGNTASLTISGLQAEDEADYYCSSYTSSSTRVFGTGTKVTVLGQPKANPTVTLFPPSSEELQANKATLVCLISDFYPGAVTVAWKADGSPVKAGVETTKPSKQSNNKYAASSYLSLTPEQWKSHRSYSCQVTHEGSTVEKTVAPTECS
notes: also called MSB0010718C; Bavencio

Molecular target: T1, PD-L1 on the surface of murine cells (MC38, B16, wild-type DC 2.4) (murine, UniProt Q9EP73 19-290)
T1 construct: whole, on cells; also called PD-L1 antigen; Cd274 gene product
Test: FACS on MC38 cells, FITC-labeled goat anti-human secondary antibody
Source text: A. The histograms of different colors represent, from top to bottom, the fluorescence signals measured for the negative control (NC) group, the secondary antibody group, the anti-PD-L1 antibody group, the anti-PD-L1 THIOMAB group, and the ADC HE-S2 group, respectively. B. Mean fluorescence intensity (MFI) measured after treatment with different antibody-based drugs on MC38. NC group: the negative control only added with the isotype antibody, with no secondary antibody added for staining; secondary antibody group: the control group added with the isotype antibody and stained with fluorescent secondary antibody. Student's t test was used to compare significant differences between the groups, and p<0.0001 is represented by ****.
With PD-L1 positive MC38 as a platform, the inventors verified whether ADC HE-S2 and the gene-modified anti-PD-L1 THIOMAB retained the original antibody-antigen binding capacity by using a fluorescence activated cell sorting (FACS) technique. In the experiment, ADC HE-S2, anti-PD-L1 antibody (i.e., avelumab as described in Example 2) and anti-PD-L1 THIOMAB (i.e., mutant antibody prepared in Example 2) serving as primary antibodies were incubated with MC38 cells, such that the antibodies could be sufficiently contacted and bind to PD-L1 on the cell surfaces. After washing with PBS, the cells were treated with an FITC-labeled goat anti-human secondary antibody, and incubated in the dark for 30 min to allow the secondary antibody to bind fully to the primary antibodies. Simultaneously, two groups of negative controls were set, wherein one group was marked as a negative control (NC), only isotype control IgG was added to treat the cells, no staining was carried out, and the fluorescent background of the cells was represented; the other group was marked as a secondary antibody, and after addition of isotype control IgG, the secondary antibody was stained with FITC-labeled secondary antibody along with other experimental groups to characterize false positive fluorescence signals generated by non-specific binding of secondary antibodies to the cells. The stained MC38 cells were analyzed on a BD FACSAria™ III flow cytometer, and the strength of FITC fluorescence signals on MC38 cells treated with different antibody-based drugs was detected and compared, so as to characterize the affinity of ADC, THIOMAB and antibodies to PD-L1.

T1 sequence (Q9EP73 19-290): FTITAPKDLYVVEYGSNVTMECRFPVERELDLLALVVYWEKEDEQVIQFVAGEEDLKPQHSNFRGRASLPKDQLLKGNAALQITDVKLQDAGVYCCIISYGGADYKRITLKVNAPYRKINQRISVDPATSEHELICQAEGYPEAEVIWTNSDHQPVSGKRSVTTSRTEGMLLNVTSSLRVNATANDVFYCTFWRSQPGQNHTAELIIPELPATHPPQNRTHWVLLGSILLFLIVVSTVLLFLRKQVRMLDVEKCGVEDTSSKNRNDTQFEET

MFI	shift rate of the FITC positive signal relative to the NC group [%]	Binder
449	36.6	B1
445	35.7	B2
